Two molecules from patent US20050048622A1 (Genentech, published 2005) can be followed below.

One experiment addresses ErbB4.Fc (UniProt Q15303). Put plainly: displacement of ^125I-NRG3^EGF.Fc from immobilized ErbB4.Fc, 96-well plate.
In a further experiment the target is T1, human ErbB2 receptor (human, UniProt P04626 23-1255).
T1 construct: whole, on cells; also called HER2; K562^erbB2 cells
Put plainly: FACS on K562^erbB2 cells.

The next experiment addresses T2, human ErbB4 receptor (human, UniProt Q15303 26-1308).
T2 construct: whole, on cells; also called HER4; K562^erbB4 cells
The experiment in a line: FACS on K562^erbB4 cells.

A further experiment addresses T3, human ErbB3 receptor (human, UniProt P21860 20-1342).
T3 construct: whole, on cells; also called HER3; K562^erbB3 cells
Put plainly: FACS on K562^erbB3 cells.

Sequence of ErbB4.Fc (Q15303 26-651 limits assumed): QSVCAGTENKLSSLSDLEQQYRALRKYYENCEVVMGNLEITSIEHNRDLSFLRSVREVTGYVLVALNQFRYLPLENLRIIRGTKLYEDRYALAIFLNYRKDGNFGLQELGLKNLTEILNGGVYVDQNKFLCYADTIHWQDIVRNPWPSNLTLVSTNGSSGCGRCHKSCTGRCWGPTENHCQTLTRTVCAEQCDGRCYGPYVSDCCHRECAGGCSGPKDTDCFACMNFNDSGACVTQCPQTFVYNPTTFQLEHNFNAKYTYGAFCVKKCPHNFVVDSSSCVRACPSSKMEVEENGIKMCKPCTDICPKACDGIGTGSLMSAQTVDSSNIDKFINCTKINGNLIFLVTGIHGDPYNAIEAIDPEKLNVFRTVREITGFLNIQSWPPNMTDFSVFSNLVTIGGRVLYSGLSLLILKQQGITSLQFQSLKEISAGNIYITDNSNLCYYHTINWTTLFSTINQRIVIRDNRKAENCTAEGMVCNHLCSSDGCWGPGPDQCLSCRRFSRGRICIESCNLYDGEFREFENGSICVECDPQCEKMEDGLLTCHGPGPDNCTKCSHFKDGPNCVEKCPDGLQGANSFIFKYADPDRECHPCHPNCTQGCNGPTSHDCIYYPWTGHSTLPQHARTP
T2 sequence (Q15303 26-1308): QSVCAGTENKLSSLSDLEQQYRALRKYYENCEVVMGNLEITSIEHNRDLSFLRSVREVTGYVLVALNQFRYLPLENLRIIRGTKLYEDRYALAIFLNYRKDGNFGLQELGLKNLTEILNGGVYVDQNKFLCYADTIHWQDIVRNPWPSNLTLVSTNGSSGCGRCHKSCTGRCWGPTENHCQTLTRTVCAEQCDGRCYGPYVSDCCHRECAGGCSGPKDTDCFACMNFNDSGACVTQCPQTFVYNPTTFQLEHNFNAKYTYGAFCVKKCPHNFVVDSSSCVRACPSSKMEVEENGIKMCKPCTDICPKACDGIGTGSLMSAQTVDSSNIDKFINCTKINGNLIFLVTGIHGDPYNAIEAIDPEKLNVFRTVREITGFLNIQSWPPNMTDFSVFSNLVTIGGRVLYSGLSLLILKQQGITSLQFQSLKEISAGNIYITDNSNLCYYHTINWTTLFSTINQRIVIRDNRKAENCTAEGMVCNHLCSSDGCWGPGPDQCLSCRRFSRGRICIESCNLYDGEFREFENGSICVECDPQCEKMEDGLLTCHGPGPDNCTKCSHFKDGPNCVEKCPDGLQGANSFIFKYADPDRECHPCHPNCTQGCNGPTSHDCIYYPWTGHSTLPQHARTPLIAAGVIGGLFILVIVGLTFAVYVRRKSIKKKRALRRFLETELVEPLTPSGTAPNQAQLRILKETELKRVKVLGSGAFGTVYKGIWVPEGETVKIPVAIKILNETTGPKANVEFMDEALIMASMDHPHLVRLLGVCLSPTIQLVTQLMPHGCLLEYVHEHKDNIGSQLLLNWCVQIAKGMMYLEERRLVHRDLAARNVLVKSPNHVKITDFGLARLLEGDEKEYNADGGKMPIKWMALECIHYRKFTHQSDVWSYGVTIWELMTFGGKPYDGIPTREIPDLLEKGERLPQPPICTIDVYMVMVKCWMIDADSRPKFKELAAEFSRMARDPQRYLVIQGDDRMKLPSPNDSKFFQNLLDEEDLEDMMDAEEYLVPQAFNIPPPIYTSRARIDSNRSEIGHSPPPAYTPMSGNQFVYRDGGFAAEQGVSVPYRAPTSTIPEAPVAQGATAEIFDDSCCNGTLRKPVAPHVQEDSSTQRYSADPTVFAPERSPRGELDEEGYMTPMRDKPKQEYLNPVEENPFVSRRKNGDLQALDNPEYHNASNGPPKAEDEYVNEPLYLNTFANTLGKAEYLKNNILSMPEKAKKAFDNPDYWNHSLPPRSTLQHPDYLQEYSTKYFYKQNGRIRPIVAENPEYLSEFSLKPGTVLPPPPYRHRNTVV
T3 sequence (P21860 20-1342): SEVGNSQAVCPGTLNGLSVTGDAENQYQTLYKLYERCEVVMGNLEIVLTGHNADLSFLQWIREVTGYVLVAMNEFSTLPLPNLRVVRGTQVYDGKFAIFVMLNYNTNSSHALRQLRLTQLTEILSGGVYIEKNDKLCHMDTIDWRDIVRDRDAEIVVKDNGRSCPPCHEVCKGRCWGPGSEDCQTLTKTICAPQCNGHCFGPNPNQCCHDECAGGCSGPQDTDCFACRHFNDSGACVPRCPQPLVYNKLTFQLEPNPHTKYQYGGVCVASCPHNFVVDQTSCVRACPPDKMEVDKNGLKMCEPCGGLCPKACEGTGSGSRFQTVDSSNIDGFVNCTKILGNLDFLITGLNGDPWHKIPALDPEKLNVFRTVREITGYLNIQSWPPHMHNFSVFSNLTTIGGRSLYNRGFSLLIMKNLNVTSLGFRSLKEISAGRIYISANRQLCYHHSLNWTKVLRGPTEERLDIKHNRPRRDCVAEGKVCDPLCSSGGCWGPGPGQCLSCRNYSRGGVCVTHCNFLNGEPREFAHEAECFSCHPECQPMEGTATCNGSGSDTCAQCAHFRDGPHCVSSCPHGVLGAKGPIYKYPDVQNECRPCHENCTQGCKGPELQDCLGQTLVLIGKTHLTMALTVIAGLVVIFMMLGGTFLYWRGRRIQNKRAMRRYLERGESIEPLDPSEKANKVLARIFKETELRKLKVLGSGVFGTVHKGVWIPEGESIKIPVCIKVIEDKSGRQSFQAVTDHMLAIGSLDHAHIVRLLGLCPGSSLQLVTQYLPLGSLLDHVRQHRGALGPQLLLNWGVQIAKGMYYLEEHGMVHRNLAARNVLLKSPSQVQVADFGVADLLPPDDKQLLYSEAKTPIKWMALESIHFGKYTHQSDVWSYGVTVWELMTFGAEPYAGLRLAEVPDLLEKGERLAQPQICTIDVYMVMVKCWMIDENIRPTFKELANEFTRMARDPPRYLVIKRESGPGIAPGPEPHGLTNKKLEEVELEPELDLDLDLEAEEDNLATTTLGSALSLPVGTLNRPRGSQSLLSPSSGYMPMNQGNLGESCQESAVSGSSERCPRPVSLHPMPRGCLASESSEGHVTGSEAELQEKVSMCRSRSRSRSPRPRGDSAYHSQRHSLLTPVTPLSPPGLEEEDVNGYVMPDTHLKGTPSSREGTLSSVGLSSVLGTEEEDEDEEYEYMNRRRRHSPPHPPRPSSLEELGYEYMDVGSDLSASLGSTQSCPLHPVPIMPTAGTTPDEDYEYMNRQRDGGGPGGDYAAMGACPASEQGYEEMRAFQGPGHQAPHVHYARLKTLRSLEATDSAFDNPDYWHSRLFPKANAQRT

Regarding “NRG1^EGF (rHRGβ1 177-244) (from UniProt Q02297 177-244) (ligand)”, in the experiment with ErbB4.Fc, the inhibition constant (Ki) turned out to be 1 nM.

B1: RSE.Fc (Fc fusion, UniProt Q06418 41-428, looked up)
chain: AGLKLMGAPVKLTVSQGQPVKLNCSVEGMEEPDIQWVKDGAVVQNLDQLYIPVSEQHWIGFLSLKSVERSDAGRYWCQVEDGGETEISQPVWLTVEGVPFFTVEPKDLAVPPNAPFQLSCEAVGPPEPVTIVWWRGTTKIGGPAPSPSVLNVTGVTQSTMFSCEAHNLKGLASSRTATVHLQALPAAPFNITVTKLSSSNASVAWMPGADGRALLQSCTVQVTQAPGGWEVLAVVVPVPPFTCLLRDLVPATNYSLRVRCANALGPSPYADWVPFQTKGLAPASAPQNLHAIRTDSGLILEWEEVIPEAPLEGPLGPYKLSWVQDNGTQDELTVEGTRANLTGWDPQKDLIVRVCVSNAVGCGPWSQPLVVSSHDRAGQQGPPHSRTS
notes: Control; also called control fusion protein; control receptor RSE.Fc; not shown: Fc part
Regarding B1, the binding result in the experiment with human ErbB2 receptor, in the experiment with human ErbB4 receptor and with human ErbB3 receptor was “no binding” in each case.

By Ki is commonly meant the equilibrium dissociation constant of an inhibitor or competing ligand from its target.
